The values below are quoted from earlier work in publication PMC2667909.

The data set addresses Histone H3 peptide (H3K27me3) (Drosophila melanogaster) (UniProt P02299).

Consider “Polycomb (Pc) chromodomain (from UniProt P26017)”, for which the dissociation constant Kd (usually the free concentration of one partner at which half of the binding sites on the other are occupied at equilibrium, for simple one-to-one binding) is 5 µM.
